The values below come from paper PMC11933697 (Nature Communications, 2025).

What all share (test): ITC
The target in test [1] is T1, hMED25 ACID (389-543) (human, UniProt Q71SY5 389-543).
T1 sequence (looked up): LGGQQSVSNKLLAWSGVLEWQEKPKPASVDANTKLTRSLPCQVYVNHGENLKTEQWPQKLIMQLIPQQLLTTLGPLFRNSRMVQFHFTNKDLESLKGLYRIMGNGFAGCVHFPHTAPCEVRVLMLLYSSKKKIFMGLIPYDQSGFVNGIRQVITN

In test [2] the target is T2, MED25 ACID I541A/T542A (human, UniProt Q71SY5 389-543, I541A | T542A).
T2 sequence (looked up): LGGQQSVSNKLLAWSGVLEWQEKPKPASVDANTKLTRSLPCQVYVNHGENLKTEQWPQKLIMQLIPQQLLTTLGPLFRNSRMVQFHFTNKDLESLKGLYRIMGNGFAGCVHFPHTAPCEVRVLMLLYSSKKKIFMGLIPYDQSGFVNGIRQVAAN

For test [3], the target named is T3, MED25 ACID I537A/R538A (human, UniProt Q71SY5 389-543, I537A | R538A).
T3 sequence (looked up): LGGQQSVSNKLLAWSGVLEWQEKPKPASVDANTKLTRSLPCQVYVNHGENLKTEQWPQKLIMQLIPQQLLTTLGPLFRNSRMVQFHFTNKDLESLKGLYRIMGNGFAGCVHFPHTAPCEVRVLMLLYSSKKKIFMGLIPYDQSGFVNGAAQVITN

The target in test [4] is T1, hMED25 ACID (389-543). This is another data set of the same source.
In test [5] the target is T4, NS1/MED25 ACID complex (human respiratory syncytial virus …, UniProt P0DOE9 1-139; Q71SY5 389-543).
T4 sequence (looked up) 1: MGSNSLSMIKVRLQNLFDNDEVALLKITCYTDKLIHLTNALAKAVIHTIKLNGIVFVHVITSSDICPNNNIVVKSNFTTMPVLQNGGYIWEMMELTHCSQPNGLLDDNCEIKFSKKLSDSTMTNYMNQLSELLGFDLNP
T4 sequence (looked up) 2: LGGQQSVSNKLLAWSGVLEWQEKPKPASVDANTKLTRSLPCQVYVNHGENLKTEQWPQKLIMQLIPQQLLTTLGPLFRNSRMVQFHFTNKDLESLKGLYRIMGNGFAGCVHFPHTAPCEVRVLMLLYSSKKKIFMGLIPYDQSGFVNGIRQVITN

Where two headings read alike, the source gives them in different places.

B1: NS1 E110A (natural protein, human respiratory syncytial virus (hRSV), UniProt P0DOE9 1-139, looked up)
chain: MGSNSLSMIKVRLQNLFDNDEVALLKITCYTDKLIHLTNALAKAVIHTIKLNGIVFVHVITSSDICPNNNIVVKSNFTTMPVLQNGGYIWEMMELTHCSQPNGLLDDNCAIKFSKKLSDSTMTNYMNQLSELLGFDLNP
In the case of B1, the Kd in test [1] was found to be 1740 ± 370 nM.

B2: NS1 Y125A (natural protein, human respiratory syncytial virus (hRSV), UniProt P0DOE9 1-139, looked up)
chain: MGSNSLSMIKVRLQNLFDNDEVALLKITCYTDKLIHLTNALAKAVIHTIKLNGIVFVHVITSSDICPNNNIVVKSNFTTMPVLQNGGYIWEMMELTHCSQPNGLLDDNCEIKFSKKLSDSTMTNAMNQLSELLGFDLNP
B2: binding in test [1] was put at a Kd of 182 ± 20 nM.

B3: hRSV NS1 (1-139) (natural protein, human respiratory syncytial virus (hRSV), UniProt P0DOE9 1-139, looked up)
chain: MGSNSLSMIKVRLQNLFDNDEVALLKITCYTDKLIHLTNALAKAVIHTIKLNGIVFVHVITSSDICPNNNIVVKSNFTTMPVLQNGGYIWEMMELTHCSQPNGLLDDNCEIKFSKKLSDSTMTNYMNQLSELLGFDLNP
For the molecule B3, the Kd came to 41 ± 5 nM in test [1], 116 ± 30 nM in test [2] and 82 ± 10 nM in test [3].

B4: NS1 ΔDLNP (domain or fragment, human respiratory syncytial virus (hRSV), UniProt P0DOE9 1-135, looked up)
chain: MGSNSLSMIKVRLQNLFDNDEVALLKITCYTDKLIHLTNALAKAVIHTIKLNGIVFVHVITSSDICPNNNIVVKSNFTTMPVLQNGGYIWEMMELTHCSQPNGLLDDNCEIKFSKKLSDSTMTNYMNQLSELLGF
For the molecule B4, the binding result in test [1] is given as “binds”.

B5: NS1 N85A (natural protein, human respiratory syncytial virus (hRSV), UniProt P0DOE9 1-139, looked up)
chain: MGSNSLSMIKVRLQNLFDNDEVALLKITCYTDKLIHLTNALAKAVIHTIKLNGIVFVHVITSSDICPNNNIVVKSNFTTMPVLQAGGYIWEMMELTHCSQPNGLLDDNCEIKFSKKLSDSTMTNYMNQLSELLGFDLNP
In turn, B5 displayed a Kd in test [1] of 41 ± 8 nM.

B6: hATF3 bZIP (88-149) (domain or fragment, human, UniProt P18847 88-149, looked up)
chain: RKKRRRERNKIAAAKCRNKKKEKTECLQKESEKLESVNAELKAQIEELKNEKQHLIYMLNLH
As to B6, the Kd amounted to 1290 ± 321 nM in test [4] and 3080 ± 1320 nM in test [5].
